From US20130052729A1, “METHOD FOR PREPARING INDUCED PARAXIAL MESODERM PROGENITOR (IPAM) CELLS AND THEIR USE” (priority 2011, published 2013)
“Also recorded” adds a separate entry of the source.

Experiments:
Msgn1RepV mES cells = assay: iPAM induction in Msgn1RepV reporter mES cells (YFP+ cells, flow cytometry); format: cell-based, mouse; details: for effect on number of YFP+ cells: recombinant protein, 15% FBS, 4 days of differentiation
Procedure: ES cells were trypsinized and plated at various densities in gelatin coated, feeder-free, 24 well plates directly in serum-based (15% FBS) or serum-replacement (15% KSR, Invitrogen) conditions supplemented with factors, and DMSO (Sigma). Recombinant proteins were obtained commercially (R&D) and stock solutions were prepared according to manufacturer's recommendation. The GSK-3β inhibitor CHIR99021 was purchased from Stemgent and prepared according to the manufacturer's recommendations. Fluorescent reporter analysis and image acquisition were done on a Zeiss Axiovert system.
Cell cultures were dissociated by trypsinization, analyzed by flow cytometry on a FACScalibur (BD Biosciences) according to YFP expression. Data were further analyzed with MoFlo software (Beckman Coulter) and FlowJo software.
In order to follow the differentiation of ES cells toward the first stage of paraxial mesoderm differentiation (ie presomitic fate), which represents the first step of skeletal muscle differentiation after acquisition of a mesodermal identity, we generated a transgenic mouse ES cell line harboring a fluorescent reporter specifically expressed in paraxial mesoderm progenitors. We used the promoter from the mouse Msgn1, a gene specific for the presomitic mesoderm, to drive the expression of Venus (a modified YFP).
In order to optimize the differentiation conditions for paraxial mesoderm progenitors, we developed a manual screening assay, testing candidate growth factors and drugs interfering with various signaling pathways on ES cells. The Msgn1RepV reporter cells were plated at a defined density in 24-well plates coated with gelatin (0.1%). Two basal culture media were selected: a DMEM based medium containing 15% fetal bovine serum (FBS, high serum) and a defined serum-free medium containing 15% KSR (Invitrogen/Gibco). These basal media were supplemented with candidate factors on day 0 of differentiation. Control and experimental conditions were cultured in parallel. Cells were left to differentiate for three to four days with medium changed on day 2 or 3. Cell cultures were analyzed on day 3 and 4 of differentiation visually and by flow cytometry for YFP+ population quantification.

canonical Wnt signaling = assay: BAT-luc luciferase reporter for canonical Wnt signaling in transfected ES cells; format: cell-based, mouse; details: Rspo3 10 ng/mL, low serum (1% FBS) medium
HUES1 cells = assay: qRT-PCR of paraxial mesoderm progenitor markers in differentiating human ES cells; format: cell-based; details: 3 to 10 days of culture in 15% FBS containing medium
Procedure: Comparison of the expression of paraxial mesoderm progenitor markers Brachyury (A), PDGFRa (B), Tbx6 (C), Msgn1 (D) measured by Q RT-PCR in HUES1 undifferentiated or cultured in 15% FBS containing medium with or without Rspo3 for up to 10 days. Relative expression to undifferentiated HUES1 cells is shown (fold induction)
(§1) Total RNA was extracted from ES cell cultures using a Trizol reagent (Invitrogen) or with the Rnaeasy plus mini-kit (Qiagen). RT-PCR was performed on 5 ng total RNA using QuantiFast SYBR Green RT-PCR Kit (Qiagen), appropriate primers and run on a LightCycler 480II (Roche). GAPDH was used as the internal control.
Next, to confirm that R-spondin also induces iPAM cells from human ES cells differentiation, HUES1 cells were plated has single cells and differentiated in 15% FBS containing medium with or without Rspo3. qRT-PCR time course analysis for paraxial mesoderm progenitor markers expression was performed (FIG. 10).

mouse ES cells = assay: Sequential differentiation of iPAM cells into paraxial mesoderm derivatives (staining, qRT-PCR); format: cell-based; details: DMSO 0.5%
Procedure: From day 0 to day 4, mouse ES cells were differentiated in presence of Rspo3, followed by 15% FBS medium until day 18. Cell types were identified by tissue-specific antibody staining, namely Muscle (Desmin, green), Endothelium (PECAM1/CD31, green) and Cartilage (Alcian Blue).
ES cells were cultured for 4 days in FBS15%, DMSO 0.5% and 10 ng/ml Rspo3 and then switched to FBS 15% or FBS 1% or FBS1% plus […] (Shh) and Retinoic acid (F1ShhRA) or plus Shh, Noggin and LiCl (F1SNLi). Cells were harvested the next day and analyzed by qRT-PCR for the dermal marker Dermol (A) and the muscle marker Myf5 (B). Graphs show fold enrichment.
as §1, with “control. […]” for “control.”
For example, between day0 to day4, ES cells were exposed to optimized differentiating conditions (ie. R-spondin3 10 ng/mL, DMSO 0.5%, in 15% FBS basal medium). […] At day 18, cell cultures were fixed and analyzed by tissue specific histochemical staining or immunofluorescence (FIG. 8). […] Cells were harvested the next day and analyzed by qRT-PCR for the dermal marker Dermo 1 and the muscle marker Myf5 (FIG. 9).

Wnt signaling = details: cited from earlier work

**Q.** Which “efficiency in inducing YFP+ cells compared with Rspo-3” value (Msgn1RepV mES cells; after 4 days, 15% FBS medium) does the source give for `Cc1c[nH]c(-c2cnc(NCCNc3ccc(C#N)cn3)nc2-c2ccc(Cl)cc2Cl)n1` [CHIR99021, reference compound] here?
**A.** Its value is “as efficient as Rspo-3”.

**Q.** With `C[S+](C)[O-]` [DMSO, Dimethyl sulfoxide] as the molecule, how does the “effect on YFP+ cells” value (Msgn1RepV mES cells; 0.5% DMSO in FBS-containing medium, 4 days in culture) read?
**A.** The value was “positive effect on iPAM induction; also recorded: increase of YFP+ cells”.

B1: R-spondin3: secreted protein of the R-spondin family that activates Wnt signalling pathway; recombinant protein obtained commercially (R&D) (protein, UniProt Q9BXY4 22-272, looked up)
R-spondin-3: QNASRGRRQRRMHPNVSQGCQGGCATCSDYNGCLSCKPRLFFALERIGMKQIGVCLSSCPSGYYGTRYPDINKCTKCKADCDTCFNKNFCTKCKSGFYLHLGKCLDNCPEGLEANNHTMECVSIVHCEVSEWNPWSPCTKKGKTCGFKRGTETRVREIIQHPSAKGNLCPPTNETRKCTVQRKKCQKGERGKKGRERKRKKPNKGESKEAIPDSKSLESSKEIPEQRENKQQQKKRKVQDKQKSVSVSTVH
**Q.** For B1, which “induction of YFP+ cells” value (Msgn1RepV mES cells; 10 ng/mL, both in FBS based medium and KSR based medium) is on record?
**A.** The value was “up to 70%”.

**Q.** What about the “YFP+ population of the total population” value (Msgn1RepV mES cells; 10 ng/mL, day 4 of differentiation, 15% FBS medium, flow cytometry) of the same molecule?
**A.** Its value is “more than 70%”.

**Q.** And the “effect on number of YFP+ cells” value (Msgn1RepV mES cells)?
**A.** The value was “significantly increase the number of YFP+ cells”.

**Q.** And the “luciferase (BAT-luc) activation, canonical Wnt response” value (canonical Wnt signaling)?
**A.** The value was “strongly activated”.

**Q.** And the “luciferase (BAT-luc) activation, canonical Wnt response” value (canonical Wnt signaling; listed as Rspo3)?
**A.** Its value is “strongly activates the canonical Wnt response”.

**Q.** What about the “expression of paraxial mesoderm progenitor markers Brachyury, PDGFRa, Tbx6 and Msgn1” value (HUES1 cells) of the same molecule?
**A.** The value was “induction of the paraxial mesoderm progenitor markers; also recorded: Strong activation of Msgn1 and Tbx6”.

**Q.** And the “activation of dermal marker Dermo 1 and muscle marker Myf5 (qRT-PCR)” value (mouse ES cells; 4 days Rspo3 10 ng/mL, FBS15%, then switched medium, harvested next day)?
**A.** The value was “Significant activation of these markers”.

**Q.** And the “tissue-specific staining of cultures at day 18” value (mouse ES cells; day0 to day4 R-spondin3 10 ng/mL, 15% FBS, then differentiation media until day 18)?
**A.** Its value is “positive for Cartilage (Alcian blue positive nodules), Muscles (Desmin positive fibers) and Endothelium (CD31/PECAM1)”.

**Q.** What about the “potency to activate Wnt signaling versus Rspo1 and 4” value (Wnt signaling) of the same molecule?
**A.** The value was “more potent”.

B2: R-spondin2: secreted protein of the R-spondin family that activates Wnt signalling pathway; recombinant protein obtained commercially (R&D) (protein, UniProt Q6UXX9 22-243, looked up)
R-spondin-2: QGNRWRRSKRASYVSNPICKGCLSCSKDNGCSRCQQKLFFFLRREGMRQYGECLHSCPSGYYGHRAPDMNRCARCRIENCDSCFSKDFCTKCKVGFYLHRGRCFDECPDGFAPLEETMECVEGCEVGHWSEWGTCSRNNRTCGFKWGLETRTRQIVKKPVKDTILCPTIAESRRCKMTMRHCPGGKRTPKAKEKRNKKKKRKLIERAQEQHSVFLATDRANQ
**Q.** Which “effect on number of YFP+ cells” value (Msgn1RepV mES cells) does the source give for B2 here?
**A.** Its value is “significantly increase the number of YFP+ cells”.

**Q.** What about the “potency to activate Wnt signaling versus Rspo1 and 4” value (Wnt signaling) of the same molecule?
**A.** The value was “more potent”.

B3: Dkk1: secreted extracellular Wnt antagonist, inhibitor of canonical Wnt signaling (protein, UniProt O94907 32-266, looked up)
Dickkopf-related protein 1: TLNSVLNSNAIKNLPPPLGGAAGHPGSAVSAAPGILYPGGNKYQTIDNYQPYPCAEDEECGTDEYCASPTRGGDAGVQICLACRKRRKRCMRHAMCCPGNYCKNGICVSSDQNHFRGEIEETITESFGNDHSTLDGYSRRTTLSSKMYHTKGQEGSVCLRSSDCASGLCCARHFWSKICKPVLKEGQVCTKHRRKGSHGLEIFQRCYCGEGLSCRIQKDHHQASNSSRLHTCQRH
**Q.** For B3, which “effect of supplementation of the medium on YFP+ induction” value (Msgn1RepV mES cells; 15% FBS medium, 4 days) is on record?
**A.** Its value is “sharp decrease of YFP+ induction”.
